The data set deals with CIZ1 N571ΔPLD2 (Mus musculus). Nature of the data set: EMSA. Particulars: 10 mM Tris-HCl pH 7.5, 30 mM NaCl, 2.5 mM MgCl2, 0.2 mM DTT, 0.1% IGEPAL CA-630, 0.1 mg/ml yeast tRNA, 0.4 U RNaseOUT, 1% glycerol; 30 C 20 min; 0.7% agarose …. In general terms: A gel shift assay detects complexes by their altered migration in electrophoresis.

These results are taken from article PMC8927971.

On to Xist repeat A, for which the K half stood at 100 nM. Substance Xist repeat E proximal displayed a K half of 100 nM.
